Measured values taken from US20110262358A1 (SAPPORO MEDICAL UNIVERSITY, published 2011).
Non-standard residues stand in square brackets, D forms with d. No end group written: not given here.

B1: or7c1_131(10) (peptide)
peptide: HYTV[code i]MNPQL
notes: Synthetic OR7C1-derived peptide, printed HYTViMNPQL with a lower-case i

Biological target: T1, HLA-A24 molecule (HLA-A2402) expressed on T2-A24 cells (human)
T1 construct: whole, on cells; MHC class I molecule on T2-A24 cells
Assay: HLA-A24 stabilisation on T2A24 cells, flow cytometry with anti-HLA-A24 antibody

Binding result, binds:
B1
MYTMVTPML [or7c1_277(9)]
FYGTGFGVYL [or7c1_251(10)]
MYLVTFTGNL [or7c1_34(10)]
TYAGCLSQIF (also called peptide 93(10)) [or7c1_93(10)]
